Results on three molecules are retold here after patent US20240123068A1 (KITE PHARMA, published 2024).

For assay [1], the target named is Human CD19, wild-type full-length protein expressed on cells (human) (UniProt P15391). In words: high-throughput flow cytometry, HEK-293T cells with WT CD19 vs vector, at 0.25 ug/ml. In general terms: In flow cytometry, cells or beads pass a laser one at a time.
Assay [2] shares this target. In words: high-throughput flow cytometry, HEK-293T cells transfected with WT CD19; mean of four replicates; empty vector 0.
Assay [3] addresses FITC-Labeled human CD19 protein (ACROBiosystem, Cat-CD9-HF251) (human) (UniProt P15391). The assay can be described thus: flow cytometry, ND539 CAR T cells day 9; CD19-FITC protein premixed with anti-CD19 PE (FMC63 clone) 1:3; PE signal read on the cells that hold CD19-FITC by their CAR; competitor CD19 CAR 43 (untransduced 2.95).
Assay [4] shares this target. The assay can be described thus: flow cytometry, ND539 CAR T cells day 9; CD19-FITC protein premixed with anti-CD19 PE (FMC63 clone) 1:3; PE signal read on the cells that hold CD19-FITC by their CAR; competitor CD19 CAR 46 (untransduced 2.95).
Assay [5] shares this target. In words: flow cytometry, ND539 CAR T cells day 9; CD19-FITC protein premixed with anti-CD19 PE (FMC63 clone) 1:3; PE signal read on the cells that hold CD19-FITC by their CAR; competitor CD19 CAR 52 (untransduced 2.95).
Assay [6] has the same target. In words: flow cytometry, ND539 CAR T cells day 9; CD19-FITC protein premixed with anti-CD19 PE (FMC63 clone) 1:1; PE signal read on the cells that hold CD19-FITC by their CAR; competitor CD19 CAR 46 (untransduced 2.25).
Assay [7] shares this target. The assay can be described thus: flow cytometry, ND539 CAR T cells day 9; CD19-FITC protein premixed with anti-CD19 PE (FMC63 clone) 1:3; PE signal read on the cells that hold CD19-FITC by their CAR; competitor CAR-FMC63 (untransduced 2.95).
The target is the same in assay [8]. In words: flow cytometry, ND539 CAR T cells day 9; CD19-FITC protein premixed with anti-CD19 PE (FMC63 clone) 1:3; PE signal read on the cells that hold CD19-FITC by their CAR; competitor CD19 CAR 45 (untransduced 2.95).
Assay [9] shares this target. In words: flow cytometry, ND539 CAR T cells day 9; CD19-FITC protein premixed with anti-CD19 PE (FMC63 clone) 1:3; PE signal read on the cells that hold CD19-FITC by their CAR; competitor CD19 CAR 42 (untransduced 2.95).
Assay [10] has the same target. In words: flow cytometry, ND539 CAR T cells day 9; CD19-FITC protein premixed with anti-CD19 PE (FMC63 clone) 1:3; PE signal read on the cells that hold CD19-FITC by their CAR; competitor CD19 CAR 44 (untransduced 2.95).
Assay [11] shares this target. In words: flow cytometry, ND539 CAR T cells day 9; CD19-FITC protein premixed with anti-CD19 PE (FMC63 clone) 1:1; PE signal read on the cells that hold CD19-FITC by their CAR; competitor CD19 CAR 45 (untransduced 2.25).
Assay [12] has the same target. In words: flow cytometry, ND539 CAR T cells day 9; CD19-FITC protein premixed with anti-CD19 PE (FMC63 clone) 1:1; PE signal read on the cells that hold CD19-FITC by their CAR; competitor CD19 CAR 43 (untransduced 2.25).
Assay [13] shares this target. In words: flow cytometry, ND539 CAR T cells day 9; CD19-FITC protein premixed with anti-CD19 PE (FMC63 clone) 1:1; PE signal read on the cells that hold CD19-FITC by their CAR; competitor CD19 CAR 52 (untransduced 2.25).
For assay [14] the target is unchanged. In words: flow cytometry, ND539 CAR T cells day 9; CD19-FITC protein premixed with anti-CD19 PE (FMC63 clone) 1:1; PE signal read on the cells that hold CD19-FITC by their CAR; competitor CAR-FMC63 (untransduced 2.25).
Assay [15] has the same target. The assay can be described thus: flow cytometry, ND539 CAR T cells day 9; CD19-FITC protein premixed with anti-CD19 PE (FMC63 clone) 1:1; PE signal read on the cells that hold CD19-FITC by their CAR; competitor CD19 CAR 42 (untransduced 2.25).
For assay [16] the target is unchanged. The assay can be described thus: flow cytometry, ND539 CAR T cells day 9; CD19-FITC protein premixed with anti-CD19 PE (FMC63 clone) 1:1; PE signal read on the cells that hold CD19-FITC by their CAR; competitor CD19 CAR 44 (untransduced 2.25).
Assay [17] deals with T1, SIGLEC 7 (UniProt Q9Y286 19-357, limits assumed).
T1 construct: Counter-screen reagent of Step 3
T1 sequence (Q9Y286 19-357 limits assumed): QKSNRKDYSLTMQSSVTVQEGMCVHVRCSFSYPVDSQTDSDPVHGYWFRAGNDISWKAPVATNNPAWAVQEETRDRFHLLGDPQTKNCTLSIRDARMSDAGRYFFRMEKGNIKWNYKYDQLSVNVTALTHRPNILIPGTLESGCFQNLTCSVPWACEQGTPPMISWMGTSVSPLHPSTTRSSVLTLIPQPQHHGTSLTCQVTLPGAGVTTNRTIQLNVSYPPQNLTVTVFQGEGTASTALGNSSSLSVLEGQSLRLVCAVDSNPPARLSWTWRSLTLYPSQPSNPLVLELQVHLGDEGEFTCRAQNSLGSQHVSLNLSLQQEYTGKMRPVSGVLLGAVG
The assay can be described thus: counter-screen of the scFv clones against SIGLEC (Step 3).

Assay [18] concerns the target T2, SIGLEC 8 (UniProt Q9NYZ4 17-363, limits assumed).
T2 construct: Counter-screen reagent of Step 3
The description is as above.

Assay [19] concerns the target T3, SIGLEC 9 (UniProt Q9Y336 18-348, limits assumed).
T3 construct: Counter-screen reagent of Step 3
Described as above.

The target in assay [20] is T4, Human CD19, wild-type full-length protein expressed on cells (human, UniProt P15391 20-556).
T4 construct: also called WT CD19; CD19 wild type protein
T4 sequence: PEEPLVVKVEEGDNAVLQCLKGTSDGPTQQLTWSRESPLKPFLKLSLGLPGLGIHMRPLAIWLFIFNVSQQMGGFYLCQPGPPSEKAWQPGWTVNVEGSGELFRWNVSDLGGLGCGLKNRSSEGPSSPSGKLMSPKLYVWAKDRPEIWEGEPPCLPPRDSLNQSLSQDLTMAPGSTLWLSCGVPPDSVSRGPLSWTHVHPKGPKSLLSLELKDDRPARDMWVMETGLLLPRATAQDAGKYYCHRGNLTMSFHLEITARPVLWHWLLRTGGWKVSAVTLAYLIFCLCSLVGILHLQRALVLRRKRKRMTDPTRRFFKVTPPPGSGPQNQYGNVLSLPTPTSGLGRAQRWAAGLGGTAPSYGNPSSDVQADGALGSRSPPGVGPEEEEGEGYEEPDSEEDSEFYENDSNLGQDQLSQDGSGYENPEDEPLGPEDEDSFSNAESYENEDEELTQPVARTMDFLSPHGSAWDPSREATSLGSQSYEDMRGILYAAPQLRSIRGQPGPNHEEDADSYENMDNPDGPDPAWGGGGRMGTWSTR
In words: scFv clone screen on NALM6 cells with and without CD19.
Source text: To ensure that the up to (30) clones could recognize native CD19 expressed on tumor cells, the clones (scFv) were also screened against NALM6 tumor cell line positive (+) CD19 expression (NALM6 cell line⁺ CD19). CD19 knockout Nalm6 cell line (NALM6 cell line⁻ CD1; or CD19KO Nalm6 cell line) were used as a negative control for the selection. CD19KO Nalm6 cell lines used for the screen were engineered CRISPR knocked-out (KO) Nalm6-CD19KO cells. Clones that bound CD19⁺ NALM6 tumor cells, but not CD19-NALM6 tumor cells (CD19KO) were selected (Step 4).

T3 sequence (Q9Y336 18-348 limits assumed): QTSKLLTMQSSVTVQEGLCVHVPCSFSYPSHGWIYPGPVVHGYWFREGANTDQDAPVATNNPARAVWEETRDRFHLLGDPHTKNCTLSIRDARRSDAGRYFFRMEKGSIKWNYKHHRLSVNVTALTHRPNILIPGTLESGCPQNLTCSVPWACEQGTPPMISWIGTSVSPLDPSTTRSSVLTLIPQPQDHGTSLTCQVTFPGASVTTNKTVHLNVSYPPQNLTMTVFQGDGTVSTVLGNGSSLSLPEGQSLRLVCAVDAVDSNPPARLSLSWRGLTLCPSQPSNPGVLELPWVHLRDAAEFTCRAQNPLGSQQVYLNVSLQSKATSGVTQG
T2 sequence (Q9NYZ4 17-363 limits assumed): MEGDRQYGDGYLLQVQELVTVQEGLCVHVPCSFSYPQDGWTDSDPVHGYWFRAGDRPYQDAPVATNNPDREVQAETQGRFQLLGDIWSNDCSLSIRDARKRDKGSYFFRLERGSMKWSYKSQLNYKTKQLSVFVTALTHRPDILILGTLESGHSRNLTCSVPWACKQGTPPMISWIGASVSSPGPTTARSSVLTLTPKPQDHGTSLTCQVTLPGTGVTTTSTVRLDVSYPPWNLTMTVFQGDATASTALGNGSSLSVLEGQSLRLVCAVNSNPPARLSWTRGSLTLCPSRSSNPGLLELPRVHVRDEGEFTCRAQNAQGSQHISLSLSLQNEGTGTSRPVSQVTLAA

For “HIB19 monoclonal antibody (BioLegend, Cat no. 302202)”, the Signal:Background in assay [1] turned out to be 50. For the same molecule, in [2], the mfi at 0.125 ug/ml amounted to 500000 mfi, the mfi at 0.250 ug/ml came out at 750000 mfi, the mfi at 0.500 ug/ml stood at 1.25e+06 mfi and the mfi at 1.000 ug/ml is 1.75e+06 mfi. In assay [2], this molecule came in with a mfi at 2.000 ug/ml of 1.75e+06 mfi and a mfi at 4.000 ug/ml of 2e+06 mfi.

Turning to Anti CD19 (FMC63 Clone)-PE (antibody), the Gated for Anti-CD19 PE Expression in assay [3] was 0.97 mfi; in assay [4], 0.78 mfi; in [5], 2.35 mfi; in assay [6], 0.12 mfi; in [7] it was 1.63 mfi; in [8], 18.1 mfi. The Gated for Anti-CD19 PE Expression in assay [9] turned out to be 0.48 mfi; in assay [10], 1.26 mfi; in assay [11] it was 15.9 mfi; in [12], 0.041 mfi; in assay [13], 3.29 mfi; in assay [14], 0.8 mfi. Also, the Gated for Anti-CD19 PE Expression in assay [15] was determined as 0.045 mfi; in [16], 1.73 mfi.

B1: CD19 E7 scFv (P4) (scFv)
scFv: DIQMTQSPSSLSASVGDRVTITCRASQDITRYLNWYQQKPGKAPKLLIYAASSLQSGVPSRFSGSGSGTDFTLTISSLQPEDFATYYCQQSYSYPPTFGQGTKVEIKGGGGSGGGGSGGGGSQVQLVESGGGVVQPGRSLRLSCAASGFTFRDYGMHWVRQAPGKGLEWVAVISYEGSNEYYADSVKGRFTISRDNSKNTLYLQMNSLRAEDTAVYYCARDRGFAGWYDYAFDPWGQGTLVTVSS
notes: also called 45; clone 45
On to B1, for which the binding result in assay [17] is on record as “no binding”; in assay [18], “no binding”; in assay [19] it was “no binding”; in assay [20], “binds”.
